Source: paper PMC3546728, “Bacterial Over-Expression and Purification of the 3′phosphoadenosine 5′phosphosulfate (PAPS) Reductase Domain of Human FAD Synthase: Functional Characterization and Homology Modeling” (International Journal of Molecular Sciences, 2012)

What was measured:
Assay in all cases: purified protein
Format in all cases: biochemical, Homo sapiens
[1] = test system: T1, Cc1cc2nc3c(=O)[nH]c(=O)nc-3n(C[C@H](O)[C@H](O)[C@H](O)COP(=O)(O)O)c2cc1C; conditions: 100 μM ATP, 5 mM MgCl2, 50 mM Tris/HCl pH 7.5, 37 °C
T1 construct: C-terminal PAPS reductase domain, residues 329-587; vector pH6EX3; E. coli Rosetta (DE3); theoretical 31499 Da, ~28 kDa on SDS-PAGE

[2] = test system: T2, Nc1ncnc2c1ncn2[C@@H]1O[C@H](COP(=O)(O)OP(=O)(O)OP(=O)(O)O)[C@@H](O)[C@H]1O; conditions: 2 μM FMN, 5 mM MgCl2, 50 mM Tris/HCl pH 7.5, 37 °C
T2 construct: C-terminal PAPS reductase domain, residues 329-587; vector pH6EX3; E. coli Rosetta (DE3); theoretical 31499 Da, ~28 kDa on SDS-PAGE

[3] = test system: T3, O=P(O)(O)OP(=O)(O)O; conditions: reverse reaction, 0.5 μM FAD, 5 mM MgCl2, 50 mM Tris/HCl pH 7.5, 37 °C
T3 construct: C-terminal PAPS reductase domain, residues 329-587; vector pH6EX3; E. coli Rosetta (DE3); theoretical 31499 Da, ~28 kDa on SDS-PAGE

Chain of 6-His-Δ1-328-hFADS (Homo sapiens) (chain, as listed by the source mutant): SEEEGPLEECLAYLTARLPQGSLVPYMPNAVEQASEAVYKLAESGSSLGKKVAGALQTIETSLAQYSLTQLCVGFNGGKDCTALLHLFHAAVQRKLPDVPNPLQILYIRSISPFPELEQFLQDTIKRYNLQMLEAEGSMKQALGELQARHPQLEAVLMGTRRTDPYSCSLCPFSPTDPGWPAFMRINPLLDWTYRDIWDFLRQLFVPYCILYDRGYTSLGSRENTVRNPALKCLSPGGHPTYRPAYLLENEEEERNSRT

Substance: 6-His-Δ1-328-hFADS (Homo sapiens)
- Km [1]: 0.24 ± 0.06 µM
- kcat [1]: 0.042 ± 0.001 s⁻¹
- Km [2]: 6.23 ± 1.5 µM
- kcat [2]: 0.042 ± 0.001 s⁻¹
- Km [3]: 92.0 ± 0.5 µM
- kcat [3]: 0.0037 ± 0.0009 s⁻¹
